This note sets out measurements from patent publication US20260176319A1 (KALLYOPE, published 2026).

Starred links: 1 amine or outer side, 2 acyl side, 3 side chain; linkers in the order of their positions; H or OH if unused. Non-standard residues stand in square brackets, D forms with d. *: point of attachment. Trp(7-Me) = Cc1cccc2c(C[C@H](N)C(=O)O)c[nH]c12; C20 diacid = O=C(O)CCCCCCCCCCCCCCCCCCC(=O)*; d(γGlu) = O=C(O)[C@@H](CCC(=O)[*:2])N[*:1]; αMeW = C[C@](N)(Cc1c[nH]c2ccccc12)C(=O)O; γGlu = O=C(O)[C@H](CCC(=O)[*:2])N[*:1]; NMeH = CN[C@@H](Cc1c[nH]cn1)C(=O)O; Palmitoyl = CCCCCCCCCCCCCCCC(=O)*; Hyp = O=C(O)[C@@H]1C[C@@H](O)CN1; 2CE‑PEG‑TMEA = not defined here; 5CTMPA = not defined here; Nle = CCCC[C@H](N)C(=O)O; ACBA = not defined here; ACPA = not defined here; ACPC = not defined here; Dap = NC[C@H](N)C(=O)O; AEEA = NCCOCCOCC(=O)O; βAla = NCCC(=O)O

This assay addresses human GRP receptor (human, UniProt P30550 1-384). In words: cell-based or functional assay.

Chain of human GRP receptor (P30550 whole entry): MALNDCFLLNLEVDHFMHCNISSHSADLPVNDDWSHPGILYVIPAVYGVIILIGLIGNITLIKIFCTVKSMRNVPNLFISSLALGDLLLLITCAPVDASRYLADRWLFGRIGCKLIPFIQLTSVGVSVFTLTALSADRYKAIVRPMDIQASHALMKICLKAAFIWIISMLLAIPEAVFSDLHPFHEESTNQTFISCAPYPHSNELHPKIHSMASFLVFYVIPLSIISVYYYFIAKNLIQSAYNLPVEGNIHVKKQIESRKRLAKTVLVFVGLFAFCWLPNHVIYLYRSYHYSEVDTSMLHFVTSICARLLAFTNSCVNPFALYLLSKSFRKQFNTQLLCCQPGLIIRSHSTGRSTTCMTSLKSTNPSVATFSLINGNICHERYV

B1: Peptide 266 (peptide)
peptide: {C20 diacid}-[γGlu][AEEA][AEEA]GEGEHWAV[βAla]HL[Nle]-NH2
SMILES: CCCC[C@H](NC(=O)[C@H](CC(C)C)NC(=O)[C@H](Cc1c[nH]cn1)NC(=O)CCNC(=O)[C@@H](NC(=O)[C@H](C)NC(=O)[C@H](Cc1c[nH]c2ccccc12)NC(=O)[C@H](Cc1c[nH]cn1)NC(=O)[C@H](CCC(=O)O)NC(=O)CNC(=O)[C@H](CCC(=O)O)NC(=O)CNC(=O)COCCOCCNC(=O)COCCOCCNC(=O)CC[C@H](NC(=O)CCCCCCCCCCCCCCCCCCC(=O)O)C(=O)O)C(C)C)C(N)=O
In the case of B1, the “hIP1 GRPR EC50” value stood at 11 nM.

B2: Peptide 267 (peptide)
peptide: {C20 diacid}-[γGlu][AEEA][AEEA]GQHWAV[βAla][NMeH]L[Nle]-NH2
SMILES: CCCC[C@H](NC(=O)[C@H](CC(C)C)NC(=O)[C@H](Cc1c[nH]cn1)N(C)C(=O)CCNC(=O)[C@@H](NC(=O)[C@H](C)NC(=O)[C@H](Cc1c[nH]c2ccccc12)NC(=O)[C@H](Cc1c[nH]cn1)NC(=O)[C@H](CCC(N)=O)NC(=O)CNC(=O)COCCOCCNC(=O)COCCOCCNC(=O)CC[C@H](NC(=O)CCCCCCCCCCCCCCCCCCC(=O)O)C(=O)O)C(C)C)C(N)=O
With B2, the “hIP1 GRPR EC50” value was 7.4 nM.

B3: Peptide 269 (peptide)
peptide: {C20 diacid}-[γGlu][AEEA][AEEA][Hyp]QHWAV[βAla]HL[Nle]-NH2
SMILES: CCCC[C@H](NC(=O)[C@H](CC(C)C)NC(=O)[C@H](Cc1c[nH]cn1)NC(=O)CCNC(=O)[C@@H](NC(=O)[C@H](C)NC(=O)[C@H](Cc1c[nH]c2ccccc12)NC(=O)[C@H](Cc1c[nH]cn1)NC(=O)[C@H](CCC(N)=O)NC(=O)[C@@H]1C[C@@H](O)CN1C(=O)COCCOCCNC(=O)COCCOCCNC(=O)CC[C@H](NC(=O)CCCCCCCCCCCCCCCCCCC(=O)O)C(=O)O)C(C)C)C(N)=O
Turning to B3, the “hIP1 GRPR EC50” value is 2.4 nM.

B4: Peptide 257 (peptide)
peptide: {C20 diacid}-[γGlu][γGlu][AEEA][AEEA]ESQH[Trp(7-Me)]AV[βAla]HL[Nle]-NH2
SMILES: CCCC[C@H](NC(=O)[C@H](CC(C)C)NC(=O)[C@H](Cc1c[nH]cn1)NC(=O)CCNC(=O)[C@@H](NC(=O)[C@H](C)NC(=O)[C@H](Cc1c[nH]c2c(C)cccc12)NC(=O)[C@H](Cc1c[nH]cn1)NC(=O)[C@H](CCC(N)=O)NC(=O)[C@H](CO)NC(=O)[C@H](CCC(=O)O)NC(=O)COCCOCCNC(=O)COCCOCCNC(=O)CC[C@H](NC(=O)CC[C@H](NC(=O)CCCCCCCCCCCCCCCCCCC(=O)O)C(=O)O)C(=O)O)C(C)C)C(N)=O
Turning to B4, the “hIP1 GRPR EC50” value was determined as 12.5 nM.

Turning to {C20 diacid}-[γGlu][γGlu][AEEA][AEEA]GQHWAV[ACPC]HL[Nle]-NH2 (reading uncertain) [Peptide 271], the “hIP1 GRPR EC50” value turned out to be 10.2 nM.

For {C20 diacid}-[γGlu][AEEA][AEEA]G[Dap](5CTMPA)HWAV[βAla]HL[Nle]-NH2 (reading uncertain) [Peptide 261], the “hIP1 GRPR EC50” value came to 4 nM.

As to {C20 diacid}-[γGlu][AEEA][AEEA]GNH[Trp(7-Me)]AV[3A3MBA]HL[Nle]-NH2 [Peptide 264], the “hIP1 GRPR EC50” value was 8.6 nM.

On to {C20 diacid}-[γGlu][γGlu][AEEA][AEEA]GNH[Trp(7-Me)]AV[BABA]HL[Nle]-NH2 [Peptide 258], for which the “hIP1 GRPR EC50” value came to 6 nM.

As for {C20 diacid}-[γGlu][AEEA][AEEA]GQHWAV[βAla]HL[Hse(Me)]-NH2 [Peptide 265], the “hIP1 GRPR EC50” value was 7.7 nM.

B5: Peptide 274 (peptide)
peptide: {C20 diacid}-[γGlu][γGlu][AEEA][AEEA]GNH[αMeW]AV[βAla]HL[Nle]-NH2
SMILES: CCCC[C@H](NC(=O)[C@H](CC(C)C)NC(=O)[C@H](Cc1c[nH]cn1)NC(=O)CCNC(=O)[C@@H](NC(=O)[C@H](C)NC(=O)[C@](C)(Cc1c[nH]c2ccccc12)NC(=O)[C@H](Cc1c[nH]cn1)NC(=O)[C@H](CC(N)=O)NC(=O)CNC(=O)COCCOCCNC(=O)COCCOCCNC(=O)CC[C@H](NC(=O)CC[C@H](NC(=O)CCCCCCCCCCCCCCCCCCC(=O)O)C(=O)O)C(=O)O)C(C)C)C(N)=O
As for B5, the “hIP1 GRPR EC50” value was 4.9 nM.

For the molecule {C20 diacid}-[γGlu][AEEA][AEEA]GQH[Trp(7-Me)]AV[BAIBA]HL[Nle]-NH2 [Peptide 263], the “hIP1 GRPR EC50” value came out at 2.7 nM.

With {C20 diacid}-[γGlu][γGlu][AEEA][AEEA]GQH[Trp(7-Me)]AV[BABA]HL[Nle]-NH2 [Peptide 259], the “hIP1 GRPR EC50” value amounted to 8.2 nM.

On to {C20 diacid}-[γGlu]E[AEEA][AEEA]GQHWAV[ACBA]HL[Nle]-NH2 (reading uncertain) [Peptide 273], for which the “hIP1 GRPR EC50” value was 12.3 nM.

B6: Peptide 268 (peptide)
peptide: {C20 diacid}-[γGlu][AEEA][AEEA]PQHWAV[βAla]HL[Nle]-NH2
SMILES: CCCC[C@H](NC(=O)[C@H](CC(C)C)NC(=O)[C@H](Cc1c[nH]cn1)NC(=O)CCNC(=O)[C@@H](NC(=O)[C@H](C)NC(=O)[C@H](Cc1c[nH]c2ccccc12)NC(=O)[C@H](Cc1c[nH]cn1)NC(=O)[C@H](CCC(N)=O)NC(=O)[C@@H]1CCCN1C(=O)COCCOCCNC(=O)COCCOCCNC(=O)CC[C@H](NC(=O)CCCCCCCCCCCCCCCCCCC(=O)O)C(=O)O)C(C)C)C(N)=O
As to B6, the “hIP1 GRPR EC50” value was 4.3 nM.

On to {C20 diacid}-[γGlu][AEEA][AEEA]G[Dap](2CE‑PEG‑TMEA)HWAV[βAla]HL[Nle]-NH2 (reading uncertain) [Peptide 262], for which the “hIP1 GRPR EC50” value was determined as 4 nM.

With {C20 diacid}-[γGlu][γGlu][AEEA][AEEA]GQHWAV[ACPA]HL[Nle]-NH2 (reading uncertain) [Peptide 272], the “hIP1 GRPR EC50” value came out at 6 nM.

B7: Peptide 16 (peptide)
peptide: Palmitoyl-[d(γGlu)][AEEA][AEEA]GEHWAV[dA]HL[Nle]-NH2
SMILES: CCCCCCCCCCCCCCCC(=O)N[C@H](CCC(=O)NCCOCCOCC(=O)NCCOCCOCC(=O)NCC(=O)N[C@@H](CCC(=O)O)C(=O)N[C@@H](Cc1c[nH]cn1)C(=O)N[C@@H](Cc1c[nH]c2ccccc12)C(=O)N[C@@H](C)C(=O)N[C@H](C(=O)N[C@H](C)C(=O)N[C@@H](Cc1c[nH]cn1)C(=O)N[C@@H](CC(C)C)C(=O)N[C@@H](CCCC)C(N)=O)C(C)C)C(=O)O
Consider B7, for which the “hIP1 GRPR EC50” value came out at 5.8 nM.

In the case of {C20 diacid}-[γGlu][γGlu][AEEA][AEEA]GQH[Trp(7-Me)]AV[BABA][NMeH]L[Nle]-NH2 [Peptide 270], the “hIP1 GRPR EC50” value turned out to be 3.8 nM.
